# Measured values taken from patent US7211424B1, “Mammalian Subtilisin/kexin isozyme SKI-1: a proprotein convertase with a unique cleavage specificity” (Institut de Recherches Cliniques de Montreal, priority 1999, dated 2007).
# T1: SKI-1 (Homo sapiens, UniProt Q14703)
# T1 sequence (Q14703 187-998 limits assumed): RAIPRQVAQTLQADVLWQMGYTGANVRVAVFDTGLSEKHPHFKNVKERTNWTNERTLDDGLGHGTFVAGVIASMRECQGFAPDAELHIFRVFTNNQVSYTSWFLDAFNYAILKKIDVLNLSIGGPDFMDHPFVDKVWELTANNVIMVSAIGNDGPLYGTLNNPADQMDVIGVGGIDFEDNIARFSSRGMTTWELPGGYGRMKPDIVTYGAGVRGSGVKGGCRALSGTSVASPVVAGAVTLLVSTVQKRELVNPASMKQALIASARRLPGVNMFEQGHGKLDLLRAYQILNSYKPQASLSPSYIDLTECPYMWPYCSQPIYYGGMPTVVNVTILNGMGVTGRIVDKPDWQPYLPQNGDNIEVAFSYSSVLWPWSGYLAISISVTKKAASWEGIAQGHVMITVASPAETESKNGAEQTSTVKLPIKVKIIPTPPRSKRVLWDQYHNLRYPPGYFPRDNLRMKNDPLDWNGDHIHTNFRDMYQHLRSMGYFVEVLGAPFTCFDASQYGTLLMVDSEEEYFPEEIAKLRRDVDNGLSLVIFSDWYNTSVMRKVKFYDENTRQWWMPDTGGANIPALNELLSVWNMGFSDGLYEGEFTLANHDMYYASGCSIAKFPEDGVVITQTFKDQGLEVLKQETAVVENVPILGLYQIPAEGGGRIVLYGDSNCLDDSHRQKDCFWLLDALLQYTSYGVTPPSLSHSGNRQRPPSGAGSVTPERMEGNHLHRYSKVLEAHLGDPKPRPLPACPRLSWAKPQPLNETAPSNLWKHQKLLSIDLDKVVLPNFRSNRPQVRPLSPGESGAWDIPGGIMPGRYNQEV
# T2: BTMD-SKI-1 (Homo sapiens, UniProt Q14703)
# T2 sequence (Q14703 187-997 limits assumed): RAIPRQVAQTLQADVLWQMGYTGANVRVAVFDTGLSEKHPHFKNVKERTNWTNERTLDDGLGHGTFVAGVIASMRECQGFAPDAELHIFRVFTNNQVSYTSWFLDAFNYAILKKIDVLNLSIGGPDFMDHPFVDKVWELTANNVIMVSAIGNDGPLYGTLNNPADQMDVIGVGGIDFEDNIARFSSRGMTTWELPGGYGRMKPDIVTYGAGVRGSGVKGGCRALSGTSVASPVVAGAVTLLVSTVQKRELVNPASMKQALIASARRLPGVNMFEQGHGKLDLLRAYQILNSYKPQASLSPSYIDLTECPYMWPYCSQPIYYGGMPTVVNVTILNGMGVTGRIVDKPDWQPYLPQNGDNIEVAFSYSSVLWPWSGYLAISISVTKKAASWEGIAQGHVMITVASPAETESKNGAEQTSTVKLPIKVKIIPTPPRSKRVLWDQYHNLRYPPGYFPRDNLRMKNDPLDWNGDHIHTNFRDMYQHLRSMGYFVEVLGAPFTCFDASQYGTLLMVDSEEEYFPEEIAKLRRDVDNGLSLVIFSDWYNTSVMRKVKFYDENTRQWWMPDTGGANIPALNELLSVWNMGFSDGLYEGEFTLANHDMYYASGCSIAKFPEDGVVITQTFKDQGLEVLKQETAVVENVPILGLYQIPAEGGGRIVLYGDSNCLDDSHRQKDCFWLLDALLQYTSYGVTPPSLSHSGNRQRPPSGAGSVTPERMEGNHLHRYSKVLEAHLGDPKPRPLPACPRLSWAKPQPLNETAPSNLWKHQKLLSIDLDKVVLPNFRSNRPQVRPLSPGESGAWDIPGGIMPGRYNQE
# T2 sequence (Q14703 17-137 partner limits assumed): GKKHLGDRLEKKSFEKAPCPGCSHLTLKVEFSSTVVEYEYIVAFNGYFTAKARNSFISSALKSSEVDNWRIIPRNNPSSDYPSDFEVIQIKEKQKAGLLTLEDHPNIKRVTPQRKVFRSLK
# T3: SKI-1 protease (Homo sapiens, UniProt Q14703)
# T3 construct: endogenous in cells; the enzyme itself is not transfected
# T3 sequence (Q14703 187-1052): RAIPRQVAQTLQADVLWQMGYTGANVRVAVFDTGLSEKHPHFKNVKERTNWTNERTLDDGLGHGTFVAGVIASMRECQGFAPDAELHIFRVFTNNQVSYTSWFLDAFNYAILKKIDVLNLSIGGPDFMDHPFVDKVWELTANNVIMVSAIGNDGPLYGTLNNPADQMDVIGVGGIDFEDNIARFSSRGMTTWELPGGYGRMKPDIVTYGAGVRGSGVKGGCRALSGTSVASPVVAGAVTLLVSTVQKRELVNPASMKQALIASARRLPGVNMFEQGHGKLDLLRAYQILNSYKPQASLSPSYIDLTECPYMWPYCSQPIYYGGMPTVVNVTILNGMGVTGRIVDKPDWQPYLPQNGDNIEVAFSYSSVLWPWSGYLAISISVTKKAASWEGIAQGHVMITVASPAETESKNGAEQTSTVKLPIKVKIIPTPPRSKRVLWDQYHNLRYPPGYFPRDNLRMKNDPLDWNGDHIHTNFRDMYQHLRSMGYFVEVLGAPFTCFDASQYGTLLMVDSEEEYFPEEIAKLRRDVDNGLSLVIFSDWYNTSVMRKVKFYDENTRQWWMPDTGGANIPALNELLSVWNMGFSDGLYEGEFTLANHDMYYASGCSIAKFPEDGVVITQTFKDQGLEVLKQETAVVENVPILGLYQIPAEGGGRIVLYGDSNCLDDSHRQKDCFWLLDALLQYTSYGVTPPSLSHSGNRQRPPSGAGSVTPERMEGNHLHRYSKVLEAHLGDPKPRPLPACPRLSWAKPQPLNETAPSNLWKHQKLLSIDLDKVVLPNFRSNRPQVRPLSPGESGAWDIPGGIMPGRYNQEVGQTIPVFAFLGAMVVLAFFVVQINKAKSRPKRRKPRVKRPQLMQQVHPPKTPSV
# Experiments:
# SKI-1 = target: T1, SKI-1; assay type: biochemical; settings: overnight 37° C., pH 6.0; PMSF 0.5 mM + pAPMSF 50 μM, o-phenanthroline 5 mM, EDTA 10 mM
# BTMD-SKI-1 = target: T2, BTMD-SKI-1; experiment: biochemical; assay type: biochemical
# shed-hSKI-1 = target: T4, shed-hSKI-1 (Homo sapiens, UniProt Q14703); experiment: Hydrolysis of quenched fluorogenic substrates by shed-hSKI-1; assay type: biochemical; settings: in the presence of 10 mM EDTA
# T4 construct: SKI-1 is further processed to remove the transmembrane domain that keeps it integrated in the ER membrane, which generates a SKI-1 soluble form; made in house; host or cells: HK293 cells stably transfected with full-length hSKI-1 in pcDNA3; shed enzyme in the medium
# Description: For digestions, each peptide was typically reacted at 37° C. with 10 μl of the concentrated enzyme preparation in a buffer consisting of 50 mM HEPES (N-2-Hydroxyethyl piperazine-N′-2 EthaneSulfonic acid) (ICN Biomedicals Inc), 50 mM MES (2-[N-Morpholino] EthaneSulfonic acid) (Sigma Chem Co.), and 3 mM Ca^2+-acetate (pH 6.5). The digestion products were separated by RP-HPLC on a Beckman 5 μm Ultrasphere C18 column (0.2×25 cm) and eluted with a 1%/min linear gradient of aqueous 0.1% TFA/CH3CN ([…]) at a flow rate of 1 ml/min. The collected peptides were characterized by mass spectrometry and amino acid composition, which was also used to quantitate the amount of various substrates and products. The digestions of the quenched fluorogenic peptides were analyzed by RP-HPLC using a dual UV (210 nm) and fluorescence (excitation and emission wavelengths of 320 and 420 nm, respectively) detector (Rainin).
# Km(app), Vmax(app) and Ki(app) determinations—Following digestion reactions with increasing substrate concentrations, the products were separated by RP-HPLC. The rate of substrate hydrolysis was obtained from the integrated peak areas of the chromatograms. […] For the two quenched peptides, kinetic parameters were determined as described (17).
# SKI-1 protease = target: T3, SKI-1 protease; experiment: SREBP-1 processing in stable HK293 cell lines overexpressing ProSKI-1 and SREBP-1 (immunoblot); assay type: cell-based
# Description: Cell Culture: HK293 cells were maintained as monolayers in Dulbecco's modified Eagle's medium containing 100 units/ml penicillin and 100 μg/ml streptomycin sulfate (medium A) supplemented with 10% fetal calf serum. 24 hours before RNA and protein extractions medium A was supplemented with 5% lipoprotein deficient serum, 50 μM mevalonate (Sigma), 50 μM compactin (Sigma) and with no sterols or 1 μg/ml of 25-hydroxy-cholesterol and 10 μg/ml of cholesterol. 4 hours before protein extraction 25 μg/ml N-acetyl-leucinyl—leucinyl norleucinal was added. Total RNA was isolated with Trizol (Gibco BRL) reagent according to the instructions of the manufacturer. In order to extract proteins cells were washed and collected in PBS with protease inhibitors ( ). After addition of buffer A (Triton×100 1%,50 mM tris maleate, 2 mM CaCl2, inhibitor coctail ( ), and ALLN) cells were mixed with pipette and allowed to swell on ice for 20 minutes Then the solution was centrifuged for 5 minutes at 15, 000 rpm and supernatants representing membrane proteins were collected and stored until analyzed at −70° C. […]
# Transfections: HK293 cells were plated at a density of 5×10^5 /60 mm dish in medium A with 10% fetal calf serum and were cultured until they were 40–60% confluent. […] Colonies were isolated and formed stable cell lines were analyzed by immunoblotting with ProSKI-1 and SREBP-1 antibodies. […]
# furin = furin (Homo sapiens, UniProt P09958); experiment: Specificity of ProSKI-1: processing of neurotrophin-3 (NT-3), a substrate not processed by SKI-1; assay type: cell-based
# Sequence of furin (P09958 108-794, species assumed): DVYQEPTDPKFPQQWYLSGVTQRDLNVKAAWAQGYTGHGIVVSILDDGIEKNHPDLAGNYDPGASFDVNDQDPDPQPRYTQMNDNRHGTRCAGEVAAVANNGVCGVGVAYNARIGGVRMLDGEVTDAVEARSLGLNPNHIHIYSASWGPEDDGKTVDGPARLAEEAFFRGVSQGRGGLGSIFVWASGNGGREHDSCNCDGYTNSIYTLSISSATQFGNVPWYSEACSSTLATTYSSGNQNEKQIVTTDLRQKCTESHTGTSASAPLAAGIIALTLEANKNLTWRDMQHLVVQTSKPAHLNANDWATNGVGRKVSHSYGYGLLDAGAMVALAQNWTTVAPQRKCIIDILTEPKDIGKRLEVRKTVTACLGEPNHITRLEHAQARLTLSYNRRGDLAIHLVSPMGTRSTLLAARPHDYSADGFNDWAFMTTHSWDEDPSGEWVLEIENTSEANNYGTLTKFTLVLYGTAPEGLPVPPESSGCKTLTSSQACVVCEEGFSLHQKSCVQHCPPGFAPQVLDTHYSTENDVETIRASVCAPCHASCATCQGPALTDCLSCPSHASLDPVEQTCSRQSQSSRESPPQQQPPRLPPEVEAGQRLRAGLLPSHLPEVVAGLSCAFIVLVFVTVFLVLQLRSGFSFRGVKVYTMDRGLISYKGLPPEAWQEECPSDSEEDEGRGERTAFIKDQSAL
# [1] = system: SREBP mediated transcription; experiment: SREBP target gene mRNA in HK293 cells overexpressing ProSKI-1 and SREBP-1 (Northern blot); assay type: cell-based, human
# Description: Cell Culture: […] Total RNA was isolated with Trizol (Gibco BRL) reagent according to the instructions of the manufacturer. In order to extract proteins cells were washed and collected in PBS with protease inhibitors ( ). […] Samples were shaken at 4 C for 1 hour and centrifuged and the supernatant was frozen in aliquots at -70° C. Transfections: […] On day two medium containing appropriate selection agents (800 μg/ml Geneticin for pcDNA3neo, […] Zeocin for pcDNA3zeo) were added. The medium was changed every two days until defined colonies were evident. Colonies were isolated and formed stable cell lines were analyzed by immunoblotting with ProSKI-1 and SREBP-1 antibodies. […] After transfer filters were crosslinked by UV irradiation in a Stratalinker (Stratagene). Filters were prehydridized at 42° C. for 1 hour and hybridized with random labeled ^32P cDNA probes for 16-20 hours. UltrahybTM buffer (Ambion) was used. After hybridization filters were washed and exposed to film for indicated time and bands were quantified by densitometry. Primer pairs were used to clone cDNA probes: HMG CoA reductase [[NT] ID NO: 21)] [[NT] ID NO: 22)], farnesyl diphosphate [[NT] ID NO: 23)], [[NT] ID NO: 24)], Fatty acid synthase [[NT] ID NO: 25)], [[NT] ID NO: 26)], Acetyl CoA carboxylase [[NT] ID NO: 27)], [5' [NT]3 (SEQ ID NO: 28)], SREBP-1 [[NT] ID NO: 29)], [[NT] ID NO: 30)]. […]
Molecule,inhibition of the processing of proBDNF by SKI-1 (SKI-1),Hydrolysis of SREBP-2 peptide (% of control) (BTMD-SKI-1),cleavage of quenched fluorogenic peptide at the RSLK↓ site (shed-hSKI-1),processing of cytoplasmic proSREBP-1 into intermediate form(s) (SKI-1 protease; HK293 cell lines overexpressing SREBP-1 together with ProSKI-1),"nuclear SREBP-1 (SKI-1 protease; HK293 nuclear extracts, absence of sterols)",level and furin-derived processing of NT-3 (furin),"mRNA levels of LDL-receptor, HMG-CoA reductase, farnesyl diphosphate and fatty acid synthase ([1]; HK293 cells, with and without lipids, early passages of previously frozen cell lines)",target gene mRNA levels ([1]; same clones kept in culture for further passages)
O=C(O)CN(CCN(CC(=O)O)CC(=O)O)CC(=O)O [EDTA],effectively inhibit,0 % of control,completely abolished,,,,,
"ProSKI-1: the 188 amino acids that make up the signal peptide and the prosegment of SKI-1, expressed in HK293 cells (protein) GKKHLGDRLEKKSFEKAPCPGCSHLTLKVEFSSTVVEYEYIVAFNGYFTAKARNSFISSALKSSEVDNWRIIPRNNPSSDYPSDFEVIQIKEKQKAGLLTLEDHPNIKRVTPQRKVFRSLKYAESDPTVPCNETRWSQKWQSSRPLRRASLSLGSGFWHATGRHSSRRLLRA",,,,formation of the intermediate form(s) of SREBP-1 was abolished,Only minute amounts of nuclear SREBPs were detected,unaffected,greatly reduced,normal or even higher than in control cells
